Laboratory results: paper PMC4939424 (2016)

Target: Actin filaments (F-actin) polymerized in vitro from rabbit skeletal muscle actin (Oryctolagus cuniculus (Rabbit), UniProt P68135)
Experiment: F-actin co-sedimentation (pelleting)

B1: GST-fused PI3KAP/XB130 C-terminal fragment, amino acid residues 511-843 (GST-del1) (protein)
chain: LPSRDCQDDLYDDVEVSELIAVVEPAEEAAPAVDANSGSEPDRVYLDLTPVKSFLHSSSEAQAQASLPAVPHQDDVAETLTVDPKPGTTPEEPHTESPGDPEVQQRQPEVQESSEPIEPTPRITMVKLQAEQQRISFPANCPDTMASAPIAASPPVKEKLRVTSAEIKLGKNRTEAEVKRYTEEKERLERSKEEIRGHLAQLRREKRELKETLLRCTDKGVLAKLEQTLKKIDEECRMEESRRVDLELSIMEVKDNLKKAEAGPVTLGTTVDTTHLDNMSPRPQPKAATPNPPPDSTPVNSASVLKNRPLSVMVTGKGTVLQKAKEWEKKGAS
B1: binds.

B2: GST-fused C-terminal 70 amino acid residues of PI3KAP/XB130 (GST-del3) (protein)
chain: PVTLGTTVDTTHLDNMSPRPQPKAATPNPPPDSTPVNSASVLKNRPLSVMVTGKGTVLQKAKEWEKKGAS
B2: binds.

B3: GST-fused PI3KAP/XB130 fragment, GST-del1 without the C-terminal 70 amino acids (GST-del2) (protein)
chain: LPSRDCQDDLYDDVEVSELIAVVEPAEEAAPAVDANSGSEPDRVYLDLTPVKSFLHSSSEAQAQASLPAVPHQDDVAETLTVDPKPGTTPEEPHTESPGDPEVQQRQPEVQESSEPIEPTPRITMVKLQAEQQRISFPANCPDTMASAPIAASPPVKEKLRVTSAEIKLGKNRTEAEVKRYTEEKERLERSKEEIRGHLAQLRREKRELKETLLRCTDKGVLAKLEQTLKKIDEECRMEESRRVDLELSIMEVKDNLKKAEAG
B3: no binding.
